According to patent publication US7307143 (MAX DELBR CK INSTITUT FUR MOLEKULARE HEDIZIN, dated 2007):

B1: conductin GSK 3b-binding domain (amino acids 343-396) (other)
chain: ANGQVSLPHFPRTHRLPKEMTPVEPAAFAAELISRLEKLKLELESRHSLEERLQ
notes: also called GSK BD
B2: conductin disheveled homology region (amino acids 783-833) (other)
chain: LTLGHFKEQLSKKGNYRYYFKKASDEFACGAVFEEIWDDETVLPMYEGRIL
B3: conductin β-catenine binding domain (amino acids 397-465) (other)
chain: QIREDEEKEGSEQALSSRDGAPVQHPLALLPSGSYEEDPQTILDDHLSRVLKTPGCQSPGVGRYSPRSR
notes: also called b-BD

molecular target: T1, Adenomatosis Polyposis Coli (APC) (UniProt P25054 2-2843, limits assumed); test: yeast 2-hybrid, partial pieces of conductin
T1 construct: Stands for 'APC' where the sentence names no fragment; also called tumor suppressor protein APC
T1 sequence (P25054 2-2843 limits assumed): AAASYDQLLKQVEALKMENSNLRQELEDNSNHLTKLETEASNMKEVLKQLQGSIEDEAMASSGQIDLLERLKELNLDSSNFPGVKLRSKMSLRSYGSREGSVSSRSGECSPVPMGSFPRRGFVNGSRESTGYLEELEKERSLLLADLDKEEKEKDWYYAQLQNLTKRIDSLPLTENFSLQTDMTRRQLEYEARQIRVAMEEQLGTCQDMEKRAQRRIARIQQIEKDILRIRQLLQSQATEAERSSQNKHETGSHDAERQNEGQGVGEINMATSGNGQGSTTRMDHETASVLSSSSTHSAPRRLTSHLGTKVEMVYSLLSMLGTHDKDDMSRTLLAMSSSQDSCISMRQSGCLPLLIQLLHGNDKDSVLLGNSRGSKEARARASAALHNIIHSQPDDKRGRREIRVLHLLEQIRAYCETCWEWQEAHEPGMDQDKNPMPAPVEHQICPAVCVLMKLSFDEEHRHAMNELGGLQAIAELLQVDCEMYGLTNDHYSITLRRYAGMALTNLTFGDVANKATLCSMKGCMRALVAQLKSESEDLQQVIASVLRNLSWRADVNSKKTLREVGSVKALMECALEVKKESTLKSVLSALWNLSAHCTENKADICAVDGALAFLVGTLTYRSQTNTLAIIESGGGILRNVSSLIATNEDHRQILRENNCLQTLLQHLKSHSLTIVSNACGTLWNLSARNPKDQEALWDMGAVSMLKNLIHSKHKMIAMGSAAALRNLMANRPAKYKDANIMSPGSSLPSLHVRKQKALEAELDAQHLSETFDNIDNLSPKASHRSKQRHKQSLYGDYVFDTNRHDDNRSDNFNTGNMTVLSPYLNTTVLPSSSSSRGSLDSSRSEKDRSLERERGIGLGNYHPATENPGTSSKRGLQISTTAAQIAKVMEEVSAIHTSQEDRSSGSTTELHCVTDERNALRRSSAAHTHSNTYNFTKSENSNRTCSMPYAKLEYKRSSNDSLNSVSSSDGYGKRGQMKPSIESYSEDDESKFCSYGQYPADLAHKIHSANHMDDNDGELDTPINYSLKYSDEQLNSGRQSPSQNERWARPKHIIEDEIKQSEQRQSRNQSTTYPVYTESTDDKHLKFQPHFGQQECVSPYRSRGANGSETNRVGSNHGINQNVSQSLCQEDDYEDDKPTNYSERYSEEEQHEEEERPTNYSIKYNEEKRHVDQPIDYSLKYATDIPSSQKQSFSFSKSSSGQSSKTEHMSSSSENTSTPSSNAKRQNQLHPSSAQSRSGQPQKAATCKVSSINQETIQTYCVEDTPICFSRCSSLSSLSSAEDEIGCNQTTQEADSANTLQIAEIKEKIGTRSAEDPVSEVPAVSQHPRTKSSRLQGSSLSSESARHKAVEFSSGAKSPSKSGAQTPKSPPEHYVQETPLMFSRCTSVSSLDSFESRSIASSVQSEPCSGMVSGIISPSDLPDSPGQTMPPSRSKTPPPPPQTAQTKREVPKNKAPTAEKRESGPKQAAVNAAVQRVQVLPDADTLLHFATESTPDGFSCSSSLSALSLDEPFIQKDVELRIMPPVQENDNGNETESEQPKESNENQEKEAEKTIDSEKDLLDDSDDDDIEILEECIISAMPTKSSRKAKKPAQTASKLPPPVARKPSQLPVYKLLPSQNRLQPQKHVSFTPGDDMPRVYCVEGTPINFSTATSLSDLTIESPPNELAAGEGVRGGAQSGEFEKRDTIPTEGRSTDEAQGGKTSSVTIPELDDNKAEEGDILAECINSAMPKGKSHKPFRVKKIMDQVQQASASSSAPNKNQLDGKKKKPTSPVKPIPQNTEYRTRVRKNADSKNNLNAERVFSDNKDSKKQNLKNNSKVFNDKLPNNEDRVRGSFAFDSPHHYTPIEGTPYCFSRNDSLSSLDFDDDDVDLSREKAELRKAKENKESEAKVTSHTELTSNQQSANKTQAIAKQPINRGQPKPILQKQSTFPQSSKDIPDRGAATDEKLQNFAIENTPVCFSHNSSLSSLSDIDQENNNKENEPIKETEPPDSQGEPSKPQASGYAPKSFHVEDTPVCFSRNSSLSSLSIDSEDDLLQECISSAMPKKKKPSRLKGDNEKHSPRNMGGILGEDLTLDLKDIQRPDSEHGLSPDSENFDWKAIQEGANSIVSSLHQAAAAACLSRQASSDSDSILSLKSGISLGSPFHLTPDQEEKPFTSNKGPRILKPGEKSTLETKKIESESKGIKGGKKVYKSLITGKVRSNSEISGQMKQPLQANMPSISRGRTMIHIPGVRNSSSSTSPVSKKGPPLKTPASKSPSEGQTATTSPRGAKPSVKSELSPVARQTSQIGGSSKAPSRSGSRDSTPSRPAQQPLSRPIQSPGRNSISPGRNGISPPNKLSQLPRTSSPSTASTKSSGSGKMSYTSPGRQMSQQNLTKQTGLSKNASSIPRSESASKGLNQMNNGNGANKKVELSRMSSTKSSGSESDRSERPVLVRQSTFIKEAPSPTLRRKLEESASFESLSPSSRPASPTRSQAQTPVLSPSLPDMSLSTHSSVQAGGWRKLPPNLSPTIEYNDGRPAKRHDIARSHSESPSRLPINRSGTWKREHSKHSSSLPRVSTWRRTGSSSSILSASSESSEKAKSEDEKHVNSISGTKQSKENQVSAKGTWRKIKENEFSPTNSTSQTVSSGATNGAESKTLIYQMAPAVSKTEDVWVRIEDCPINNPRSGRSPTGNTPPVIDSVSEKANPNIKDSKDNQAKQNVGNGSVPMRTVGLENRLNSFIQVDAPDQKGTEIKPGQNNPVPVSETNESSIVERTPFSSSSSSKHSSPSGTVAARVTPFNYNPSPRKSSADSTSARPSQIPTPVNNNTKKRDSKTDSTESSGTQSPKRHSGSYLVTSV

Binding result, no binding:
B1
B2
B3
